Among the data in PMC6451128, “Structural and functional analysis of the nucleotide and DNA binding activities of the human PIF1 helicase” are Kd values, retold here.

Common to all, as to assay: EMSA; no nucleotide; apparent; 20 mM HEPES-NaOH pH 7.5 (Results say pH 7.2), 135 mM NaCl, 5% glycerol, 1 mM DTT, 1 mg/ml BSA, 20 min at 20 C; 0.4 nM T(35); G4 assay: 0.1 nM G4 DNA, 2% PEG 8000 instead of glycerol, 5 uM T(35) competitor
The target of one series is T1, hPIF1HD wild-type (human, UniProt Q9H611 206-620).
T1 sequence: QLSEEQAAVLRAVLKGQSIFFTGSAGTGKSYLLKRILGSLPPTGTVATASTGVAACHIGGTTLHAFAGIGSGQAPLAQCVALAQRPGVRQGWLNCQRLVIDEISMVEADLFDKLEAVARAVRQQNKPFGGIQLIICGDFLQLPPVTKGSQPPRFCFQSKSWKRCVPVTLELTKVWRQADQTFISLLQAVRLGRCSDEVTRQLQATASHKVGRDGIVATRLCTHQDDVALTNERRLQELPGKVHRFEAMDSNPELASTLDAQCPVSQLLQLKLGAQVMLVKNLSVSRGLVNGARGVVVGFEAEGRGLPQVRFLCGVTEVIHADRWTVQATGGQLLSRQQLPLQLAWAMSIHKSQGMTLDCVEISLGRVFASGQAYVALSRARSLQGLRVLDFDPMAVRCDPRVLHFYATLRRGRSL
To be noted: protein: recombinant; tags: His tag removed by thrombin, GSRM left at N-term; label: 5' 32P (PNK).

The target of the next series is T2, hPIF1HD E307Q (human, UniProt Q9H611 206-620, E307Q).
T2 sequence: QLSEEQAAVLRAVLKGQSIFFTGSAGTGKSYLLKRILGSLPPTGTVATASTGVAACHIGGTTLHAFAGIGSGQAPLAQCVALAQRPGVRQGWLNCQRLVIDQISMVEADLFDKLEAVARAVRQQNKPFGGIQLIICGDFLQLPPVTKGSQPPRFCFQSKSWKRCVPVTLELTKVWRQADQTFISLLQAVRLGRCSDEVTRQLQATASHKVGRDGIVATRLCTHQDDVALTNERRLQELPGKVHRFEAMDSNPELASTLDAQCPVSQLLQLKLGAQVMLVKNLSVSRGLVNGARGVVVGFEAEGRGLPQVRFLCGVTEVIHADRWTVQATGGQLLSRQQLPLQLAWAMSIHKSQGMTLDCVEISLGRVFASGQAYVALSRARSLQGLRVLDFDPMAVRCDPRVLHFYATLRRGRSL
To be noted: protein: recombinant; tags: His tag removed, GSRM left; label: 5' 32P (PNK).

Another series concerns the target T3, hPIF1HD R294A (human, UniProt Q9H611 206-620, R294A).
T3 sequence: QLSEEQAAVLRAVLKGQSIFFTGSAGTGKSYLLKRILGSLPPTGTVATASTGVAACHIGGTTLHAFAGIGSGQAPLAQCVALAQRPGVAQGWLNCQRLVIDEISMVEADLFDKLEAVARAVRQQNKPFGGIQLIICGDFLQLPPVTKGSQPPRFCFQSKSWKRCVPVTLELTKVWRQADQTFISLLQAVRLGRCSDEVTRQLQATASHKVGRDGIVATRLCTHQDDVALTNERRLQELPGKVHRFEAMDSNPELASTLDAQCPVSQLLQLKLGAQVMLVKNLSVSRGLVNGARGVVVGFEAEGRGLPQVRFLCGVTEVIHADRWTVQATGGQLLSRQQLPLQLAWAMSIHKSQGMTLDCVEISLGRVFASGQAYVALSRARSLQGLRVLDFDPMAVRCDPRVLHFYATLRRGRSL
To be noted: protein: recombinant; tags: His tag removed, GSRM left; label: 5' 32P (PNK).

The target in another series is T4, hPIF1HD K414A (human, UniProt Q9H611 206-620, K414A).
T4 sequence: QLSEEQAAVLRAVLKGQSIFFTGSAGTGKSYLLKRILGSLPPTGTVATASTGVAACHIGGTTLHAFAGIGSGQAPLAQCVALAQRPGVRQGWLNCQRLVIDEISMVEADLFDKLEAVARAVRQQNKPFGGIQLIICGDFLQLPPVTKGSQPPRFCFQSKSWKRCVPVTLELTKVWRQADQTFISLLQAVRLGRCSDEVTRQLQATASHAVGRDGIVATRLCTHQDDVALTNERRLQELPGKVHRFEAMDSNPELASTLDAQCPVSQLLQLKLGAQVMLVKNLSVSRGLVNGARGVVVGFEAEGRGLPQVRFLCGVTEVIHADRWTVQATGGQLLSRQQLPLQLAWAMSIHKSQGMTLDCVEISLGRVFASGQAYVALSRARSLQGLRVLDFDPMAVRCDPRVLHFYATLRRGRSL
The note with it: protein: recombinant; tags: His tag removed, GSRM left; label: 5' 32P (PNK).

Take TTTTTTTTTTTTTTTTTTTTTTTTTTTTTTTTTTT (ssDNA) [poly-T(35)]: the Kd came out at 2.3 ± 0.3 nM with hPIF1HD wild-type, 3.6 ± 0.5 nM in the series with hPIF1HD E307Q, 5.7 ± 1.6 nM in the series with hPIF1HD R294A and 1.6 ± 0.4 nM with hPIF1HD K414A.
